From publication PMC9005503

Target: T1, FZD3 (human (endogenous in hESC-derived EPs)) (UniProt Q9NPG1)
T1 sequence: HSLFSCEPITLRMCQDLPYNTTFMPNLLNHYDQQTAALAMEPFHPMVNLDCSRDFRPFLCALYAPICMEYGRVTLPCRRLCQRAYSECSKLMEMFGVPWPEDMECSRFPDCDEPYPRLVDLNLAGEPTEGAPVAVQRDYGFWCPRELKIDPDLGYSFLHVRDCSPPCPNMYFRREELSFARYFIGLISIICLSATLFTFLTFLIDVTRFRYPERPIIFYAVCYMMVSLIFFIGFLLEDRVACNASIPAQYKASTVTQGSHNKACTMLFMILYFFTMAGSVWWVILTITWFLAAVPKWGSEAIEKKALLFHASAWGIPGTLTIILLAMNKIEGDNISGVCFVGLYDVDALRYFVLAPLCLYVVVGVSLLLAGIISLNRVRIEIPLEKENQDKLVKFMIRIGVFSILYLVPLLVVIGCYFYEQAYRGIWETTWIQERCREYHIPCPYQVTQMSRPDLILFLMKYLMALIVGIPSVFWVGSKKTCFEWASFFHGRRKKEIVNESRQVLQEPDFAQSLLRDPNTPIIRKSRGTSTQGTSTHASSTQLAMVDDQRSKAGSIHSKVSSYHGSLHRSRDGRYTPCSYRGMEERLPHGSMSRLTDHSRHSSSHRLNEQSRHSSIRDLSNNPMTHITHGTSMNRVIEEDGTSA

B1: WNT5A recombinant protein (ligand)
chain: IIGAQPLCSQLAGLSQGQKKLCHLYQDHMQYIGEGAKTGIKECQYQFRHRRWNCSTVDNTSVFGRVMQIGSRETAFTYAVSAAGVVNAMSRACREGELSTCGCSRAARPKDLPRDWLWGGCGDNIDYGYRFAKEFVDARERERIHAKGSYESARILMNLHNNEAGRRTVYNLADVACKCHGVSGSCSLKTCWLQLADFRKVGDALKEKYDSAAAMRLNSRGKLVQVNSRFNSPTTQDLVYIDPSPDYCVRNESTGSLGTQGRLCNKTSEGMDGCELMCCGRGYDQFKTVQTERCHCKFHWCCYVKCKKCTEIVDQFVCK
Q: With B1 as the binder, how does the INS+ cell number (immunofluorescence, day 3) of hESC-derived EPs treated with WNT5A and FZD3-neutralizing antibodies, compared to WNT5A treated EPs read?
A: 2.5 fold
